Data taken from the DeepSol protein solubility set.

Assay: soluble on expression in E. coli; label from the status in PepcDB or PDB records

## MASIAIEYHSVVLGMERKVNVIYPDQSEIPKKDQGDKDIPVLYLLHGMGGNENSWQKRTAIERLLRHTNLIVVMPSTDLGWYTDTAYGLNYYRALSQELPQVLAAFFPNMTQKREKTFVAGLSMGGYGAFKWALKSNRFSYAASFSGALDFSPETLLEGKLGELAYWQGVFGQFDDPDLDKHYLKNMVAESDGKTKFYAWCGYEDFLFATNEKAIADFQAQGLDIDYHKGHGKHEWYYWNQQLEVLLEWLPINYQKEERLS
  soluble on expression in E. coli: not soluble

## MAHHHHHHMSLPPRGPSSPPAKCPQECVASSCVSLPITPPCIARRVLPLFPPPGWHMYDAYRNCFQYRPDVQRKLVKAVQRERHLRHLAAPHAGDAATSSAEVSAAVLRKEVMEMDSTCCCCALDAAHLFATPEDMPTPPLPLSRCELHEVLLALSPRWQSYPWRLCFDTASDGFSLSSLYRCMEAVDAKQSQVKTVAFGLFFVHSREDAALTNAQTASPVDSLSASSTSPSYALWPPTAGAPHSFCEAHHSSSRRYGAAHGALQHSVLGCFTPEVPCLGRHAANIYFGSTDTFVFRLDQLSCAPSRGAWMATDVEKKQSSQRAQQQEQQQQHGKAAEPHTCAPATSTRAVGAAPAYGYAKLALADDDIAGVPVPMPSRVTIEHAGDSKHAVDKSMVHSSPLLPPSEVPPLLNPSPLRAAVVSSSNAAAMSSVHGAPDIVVPSPRGRWHRLLRPVQPARVVPHAPLLEKFTWCGNMHNRKFIVCNPHFFAIGGGQSGAALYVDEALQYGTSSTWCETFNAPCLFGPRMGSADVSSVPSLVQSYMSGNDSPSGGPARPTSGLPHVEFAISRVVWFSVTEDKRTLRMMSAADASLPSAEAHRCGCGRFSCASASHTTTLDPMSTEKSTAPSPPPASTFLHQCDLLPFAAPM
  soluble on expression in E. coli: not soluble

## MNNIQTNTRDQDSLEYILQLELDNIRLFLELLEHERNLLAAGNLDDLALLVADKDRLIDQFARLDMRRNRFLNAAGLPEGTQGMNAWVSGSDEESTVARDWEELLGLADLAKQLNQTNAVITSSWLQYTRRTLNALHSAAGRPPLYNTKGQTT
  soluble on expression in E. coli: not soluble

## MSLSKILIAGCGDLGLELARRLTAQGHEVTGLRRSAQPMPAGVQTLIADVTRPDTLASIVHLRPEILVYCVAASEYSDEHYRLSYVEGLRNTLSALEGAPLQHVFFVSSTGVYGQEVEEWLDEDTPPIAKDFSGKRMLEAEALLAAYSSTILRFSGIYGPGRLRMIRQAQTPEQWPARNAWTNRIHRDDGAAFIAYLIQQRSHAVPERLYIVTDNQPLPVHDLLRWLADRQGIAYPAGATPPVQGNKKLSNARLLASGYQLIYPDYVSGYGALLAAMREGHHHHHH
  soluble on expression in E. coli: soluble

## VALSPLPLPEGLELTGIEGTLWQGQAAQVRWQGMSLGDLNWDLHLSALLLGQLEADIRFGRGSSTQLRGKGVVGVGLSGPYADDFLLSLPAAQAITWLPLPVPLMAQGQLEMAVKQYRFGEPYCQQAEGSLAWSAAQLESPIGALQLGTVVSDFTCQESVVTLKGGQKTAQVSSEFNLSLQPDNRYQAQAWFKPEAEFPESLKEQLSWLPQPDGQGRYPFNQQGQL
  soluble on expression in E. coli: not soluble

## MHNYLDFEKPISDLEGKILELKKLASEDESVNTSDEIARLEGRVRDAMVEIYSKLSPWQKTQVARHPSRPHFLDYASRLFTEFTPLAGDRNFANDDAIQAGLARFHGTPVAVIGQEKGNDTKSRIKHNFGSPRPEGYRKATRIMEMADRFGLPLITLVDTAGAYPGVNAEERGQAEAIARSTEMCLNVKVPIVTVVIGEGGSGGAIAIATGNRVYMLEHAIYSVISPEGAASILWRDSTRAKEAASNMKITAEDLKSLGVIDGIIPEPVGGAHRDPDAVISRTETVIGDALKELSARNGDELRADRRQKYLNIGRNL
  soluble on expression in E. coli: not soluble

## MYDTVRDRLIHLHHCRGAGWKTIHSLLKVDPTLTAPFSLPPNDLRPLVPLSDAQWTAFFHDLHSIDVQRVIKTYKGRCIRVITVFDSDYPPLLKYIYAPPWVLYAKGDSALLQEWKLISIVGTRRPTKEGIEALNKLVPPLVAAGFTIVSGLAFGIDVCAHQLAVQHGGSTIAVIAGGLDHIYPKEHRPFATLLMNEQLVIAEHPPATRPQAWQFPARNRIISGLSLGTLVVQAKRKSGSLITAAYALEQGREVFAVPGPIGLAESAGPNTLIQHGAKLVQEAADILDEFPYV
  soluble on expression in E. coli: not soluble

## MKDFKLAKSKSHAIEETKPFSILLMGVDTGSEHRKSKWSGNSDSMILVTINPKTNKTTMTSLERDVLIKLSGPKNNGQTGVEAKLNAAYASGGAEMALMTVQDLLDINVDYFMQINMQGLVDLVNAVGGITVTNKFDFPISIAANEPEYKAVVEPGTHKINGEQALVYSRMRYDDPEGDYGRQKRQREVIQKVLKKILALNSISSYKKILSAVSNNMQTNIEISSKTIPNLLAYKDSLEHIKSYQLKGEDATLSDGGSYQILTKKHLLAVQNRIKKELDKKRSKTLKTSAILYEDYYGLEHHHHHH
  soluble on expression in E. coli: soluble
